Results reported in the RNAGym collection of RNA variant scans (doi:10.1073/pnas.2313332121).

B1: TPR t1 (parent)
chain: GACCAAUCUGCCCUCAGAGCUCGAGAACAUCUUCGGAUGCAGAGGAGGCAGGCUUCGGUGGCGCGAUAGCGCCAACGUCCUCAACCUCCAAUGCAUCCCACCACAUGAUGAUGCCUGAAGAGCCUUGGUUUUUUG

Variants of: B1
Assay: polymerase ribozyme fitness, log enrichment relative to wild type (log ratio); higher = more active; in vitro selection for triplet polymerase activity
Method in brief: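 After PCR construction and transcription, each subunit's mutant library from a heterodimeric triplet polymerase ribozyme was annealed with a biotinylated primer, the partner subunit and triplets. Incubation was frozen, at −7 °C, and extended constructs were gel-excised, bound to streptavidin beads and amplified by RT-PCR, in one selection round done in triplicate. Fitness is the logarithm of a genotype's enrichment divided by that of the wild type, from inverse-variance-weighted replicate averages of Illumina-sequenced inputs and outputs. The base of the logarithm is 2, and genotypes needed ≥10 input reads and ≥1 read per output.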

In order of rising “polymerase ribozyme fitness (log ratio)” value:
1. C49A C70U C80A U116C  -7.47
2. G17A C49G U55C A75U C76U G113U  -7.46
3. G39U G65A  -6.81
4. A2U G51C G69A A121G U132C  -6.81
5. A24C A37C A121U  -6.59
6. G19U C31U C56G C124U  -6.42
7. G23C A27G G110U  -6.38
8. G19A C34A C89A  -6.24
9. G65A A119U  -6.05
10. G44U G65A  -6.04
11. A5U C28G U96A C114U  -5.96
12. C56A C72U U109G  -5.76
13. C34A C56G G117A  -5.64
14. U7A C70U G77U U92C G117C  -5.47
15. C3G G63C A68C A111U U112G G113A  -5.32
16. G10A G48A G63U C82G A91U G117C  -5.31
17. U30C G39A G57U G69U U130G  -5.29
18. G17U A43C U59G C62G A75G C115U C124G  -5.23
19. U9G C20A U54C C76U G128C  -5.03
20. C13A C28G C34A G69A A84C G110C  -4.89
21. G10U G110C  -4.86
22. C20U U38G C62G G120C  -4.8
23. U21C A27U C123U  -4.79
24. A111G G117C  -4.52
25. C15G A100U  -4.44
26. U7G C11U C49A C56A G107U C114U  -4.37
27. C11G C31G  -4.32
28. A95U G117C  -4.23
29. A16U G36A A41U C73A  -4.17
30. C70G A74G  -4.02
31. A84G C98U A100U  -4.01
32. U9G U14C G51A C56U C80A  -3.92
33. C49A C73A C89U A105U  -3.83
34. U9A G63U U78A G93C C124G G128C  -3.75
35. C53G C70A  -3.68
36. A27U C49U  -3.64
37. C4U U54A C72G C82A C114A  -3.49
38. C70A U129A  -3.27
39. C40G C102A  -3.26
40. C12A G19U G57U  -3.2
41. C11G A18G C97U G110A  -3.11
42. A43U C76A  -2.98
43. C82G C114U  -2.95
44. C85U C101G C115A  -2.93
45. C11U G45A G48A  -2.77
46. U14G U21C  -2.74
47. A5G A6G G52A A83U  -2.69
48. C20U C53U U54A U125G  -2.55
49. C12G A27C  -2.38
50. C28G  -2.31
51. C12A G44A C72G A100U  -2.22
52. C8G G19U G71A G113A U130C  -2.08
53. G39U C115U U131A  -2.02
54. G57U U87G G113A C123U  -1.98
55. G71U C89G  -1.88
56. C70A C88A  -1.82
57. U32C G71A C73U  -1.78
58. C53G C86A  -1.75
59. A6G A46U U54G  -1.68
60. C3U C12G C85U  -1.47
61. C72U C123A U126G  -1.44
62. A6G G10A C20A U112G  -1.35
63. G63U C70G A118G U125A  -1.35
64. G60U A111G U126A  -1.33
65. C49A U55C  -1.24
66. A5U U81A  -1.15
67. C12A C62A  -1.05
68. G44A G60A A74U  -0.926
69. A5G G63U  -0.893
70. C3U G61A U78G U112G  -0.547
71. C8A C53G C56A C70U C97U U112A C124U  -0.44
72. A46U G48A U87A G120A U129C  -0.344
73. G44C G60U U116C C124A  -0.335
74. U7G C8A C56A C124U U129A  -0.245
75. C94A C124A U125C U131A  -0.191
76. G47C C123A  -0.0743
77. C53A G135A  0.127
78. G52U C72G  0.452
79. C56G G69U C124U  0.715
80. G57C A100U U112C U125C  0.722
81. C12G C124G  0.742
82. C56G A74U C124U  0.777
83. A6G C72A  0.991
